The record followed here is paper PMC12521702 (2025).

One assay has as its target TNF (human, UniProt P01375). The experiment in a line: SPR.
Assay [1] deals with SARS-CoV-2 prototype (PT) RBD (SARS-CoV-2, UniProt P0DTC2). The experiment in a line: SPR. (In general: SPR reads the build-up and loss of mass on a sensor chip optically.)

Chain of TNF (P01375 77-233): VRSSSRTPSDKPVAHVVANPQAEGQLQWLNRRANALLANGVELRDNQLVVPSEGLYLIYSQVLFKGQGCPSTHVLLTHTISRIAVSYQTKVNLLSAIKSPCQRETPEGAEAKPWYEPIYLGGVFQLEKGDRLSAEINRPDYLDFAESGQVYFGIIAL

B1: TNFR2-Fc (Fc fusion)
chain: LPAQVAFTPYAPEPGSTCRLREYYDQTAQMCCSKCSPGQHAKVFCTKTSDTVCDSCEDSTYTQLWNWVPECLSCGSRCSSDQVETQACTREQNRICTCRPGWYCALSKQEGCRLCAPLRKCRPGFGVARPGTETSDVVCKPCAPGTFSNTTSSTDICRPHQICNVVAIPGNASMDAVCTSTSPTRSMAPGAVHLPQPVSTRSQHTQPTPEPSTAPSTSFLLPMGPSPPAEGSTGDFALPVGLIVGVTALGLLIIGVVNCVIMTQVKKKPLCLQREAKVPHLPADKARGTQGPEQQHLLITAPSSSSSSLESSASALDRRAPTRNQPQAPGVEASGAGEARASTGSSDSSPGGHGTQVNVTCIVNVCSSSDHSSQCSSQASSTMGDTDSSPSESPKDEQVPFSKEECAFRSQLETPETLLGSTEEKPLPLGVPDAGMKPS
Consider B1, for which the Kd (in general, the equilibrium constant for the complex coming apart) in the assay with TNF worked out at 0.0418 nM.

B2: ACE2 (M)-Fc (Fc fusion)
chain: QSTIEEQAKFFLDYFNHEAEDLFYQSSLASWNYNTNITEENVQNMNNAGDKWSAFLKEQSTWAQMYPLQEIQNLTVKLQLQALQQNGSSVLSEDKSKRLNTILNTMSTIYSTGKVCNPDNPQECLLLEPGLNEIMANSLDYNERLWAWESWRSEVGKQLRPLYEEYVVLKNEMARANHYEDYGDYWRGDYEVNGVDGYDYSRGQLIEDVEHTFEEIKPLYEHLHAYVRAKLMNAYPSYISPIGCLPAHLLGDMWGQFWTNLYSLTVPFGQKPNIDVTDAMVDQAWDAQRIFKEAEKFFVSVGLPNMTQGFWEYSMLTDPGNVQKAVCHPTAWDLGKGDFRILMCTKVTMDDFLTAHHEMGHIQYDMAYAAQPFLLRNGANEGFHEAVGEIMSLSAATPKHLKSIGLLSPDFQEDNETEINFLLKQALTIVGTLPFTYMLEKWRWMVFKGEIPKDQWMKKWWEMKREIVGVVEPVPHDETYCDPASLFHVSNDYSFIRYYTRTLYQFQFQEALCQAAKHEGPLHKCDISNSTEAGQKLFNMLRLGKSEPWTLALENVVGAKNMNVRPLLNYFEPLFTWLKDQNKNSFVGWSTDWSPYADQSIKVRISLKSALGDKAYEWNDNEMYLFRSSVAYAMRQYFLKVKNQMILFGEEDVRVANLKPRISFNFFVTAPKNVSDIIPRTEVEKAIRMSRSRINDAFRLNDNSLEFLGIQPTLGPPNQPPVS
In the case of B2, binding in assay [1] was put at a Kd of 0.274 nM.

B3: ACE2 (M)-Fc-TNFR2 (Fc fusion)
chain: QSTIEEQAKFFLDYFNHEAEDLFYQSSLASWNYNTNITEENVQNMNNAGDKWSAFLKEQSTWAQMYPLQEIQNLTVKLQLQALQQNGSSVLSEDKSKRLNTILNTMSTIYSTGKVCNPDNPQECLLLEPGLNEIMANSLDYNERLWAWESWRSEVGKQLRPLYEEYVVLKNEMARANHYEDYGDYWRGDYEVNGVDGYDYSRGQLIEDVEHTFEEIKPLYEHLHAYVRAKLMNAYPSYISPIGCLPAHLLGDMWGQFWTNLYSLTVPFGQKPNIDVTDAMVDQAWDAQRIFKEAEKFFVSVGLPNMTQGFWEYSMLTDPGNVQKAVCHPTAWDLGKGDFRILMCTKVTMDDFLTAHHEMGHIQYDMAYAAQPFLLRNGANEGFHEAVGEIMSLSAATPKHLKSIGLLSPDFQEDNETEINFLLKQALTIVGTLPFTYMLEKWRWMVFKGEIPKDQWMKKWWEMKREIVGVVEPVPHDETYCDPASLFHVSNDYSFIRYYTRTLYQFQFQEALCQAAKHEGPLHKCDISNSTEAGQKLFNMLRLGKSEPWTLALENVVGAKNMNVRPLLNYFEPLFTWLKDQNKNSFVGWSTDWSPYADQSIKVRISLKSALGDKAYEWNDNEMYLFRSSVAYAMRQYFLKVKNQMILFGEEDVRVANLKPRISFNFFVTAPKNVSDIIPRTEVEKAIRMSRSRINDAFRLNDNSLEFLGIQPTLGPPNQPPVSGGGGSGGGGSGGGGSLPAQVAFTPYAPEPGSTCRLREYYDQTAQMCCSKCSPGQHAKVFCTKTSDTVCDSCEDSTYTQLWNWVPECLSCGSRCSSDQVETQACTREQNRICTCRPGWYCALSKQEGCRLCAPLRKCRPGFGVARPGTETSDVVCKPCAPGTFSNTTSSTDICRPHQICNVVAIPGNASMDAVCTSTSPTRSMAPGAVHLPQPVSTRSQHTQPTPEPSTAPSTSFLLPMGPSPPAEGSTGD
As to B3, in assay [1], the affinity, expressed as Kd, was 0.258 nM.
